Measurements as given in the domain aggregation screens of Martell et al. (2025).

Test: soluble fraction after stress (log2 fold change); higher = more stays soluble; pooled small domains, quantitative proteomics
Details: stress: 50 degC
Outline: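 Quantitative proteomics served as the high-throughput read-out for pooled custom libraries of small protein domains. Each was stressed at 50°C. Aggregation propensity is expressed as the base-two log fold change in soluble protein after stress. A higher value means a larger share of the protein remains in solution.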

| Sequence | soluble fraction (log2) |
| --- | --- |
| HMEVLPLHQVKLKYAEADTILIALKSAQSMLSPRGQLLADNRSQQIFVYDDEAHTATLIEAIKHLDQPL | -0.0429 |
| HMSLMLYVEDVDTAFKKAIELGATEIRPVHDQFYGDRAGTLQDPFGHIWIIGTHKEDVSDEELNNRIGNI | -0.0131 |
| HMVTDTGEIEAIIDRVISENPDSVSDFKNGKERALKFLMGQAMKESKGKANPQIVNELLLKKL | 0.264 |
| HMSEPIYTQLKEILTQKIVNGEFPPGARLPSEYELTELYHISRSTVRLALKELEASGMIVRRRGKGTFVSS | -1.76 |
| HMFWVESDVDFVDKTSAHNAIKENERVIGMYISYRLNGTWTTEQYVGIDTSKDNWENPDNWNIL | -0.308 |
| HMDERLAKLTPQERKILDLIAEGATNRQIGTELHLAEKTVKNYVSNMLMKLGMSRRTEAAVFAVKASIN | -0.64 |
| HMGGELLSLRRIGTLTGISYPTLLRYVARYGEQIPQTGTGRSRRFPPAAVPVFQELRATRGRAPRATA | -0.063 |
| HMIGKLTSSKLAAIHKMKTNELLAHFTEKGFLNINDAGKYILTQQGKDVGAEFKTSQYGGYFLWPENIE | -0.841 |
| HMVPQEVLPITLIIDGKLIEENLLYAKMTEQVLIQQLDINNIKSIKQILFAGLDSFGNFFYQEKQN | -1.8 |
| HMGISQAQAMQALRKLIEEEDKHTPLSDQTLMERLKAAGIPLARRTIAKYRESLGIPSAAQRK | -0.109 |
| HMERLKKYLDDVRTFLPGTNPKKVDEILREIESHVLERAEREHGEVNDNAVAMSIKEYGSPEEVAARYYEG | 0.194 |
| HMRIYFSPSEIGFYHESDKQAYLLAGTWPNDLLEISEKWFLYLLEGQQKGKVITVNDYDQPVLVD | -3.31 |
| HMTVVIKVQASQLESWKSSAGTEIKAKLIAVEDEKTYLFVTETGKTIRATAAQLDESSVSRARKLAGL | -1.03 |
| HMKEGGGYGQLRLKEAAIQHAFDLQNALQFIAERGYQAHENTTLKEAANALNLKPIELLELLKSSQ | 0.281 |
| HMIIVMRKGATEAQVNDIVERVRAAGFGVHLSQGEERTIIGAIGGDRAVLADLNLEAAPGVERVTPIS | 0.0417 |
| HMPYSPTPGSAPARLIAHLQEHGDSVNRTAIAELLQVDRKNVHNYLARAVTHGLLLRHGGGAYSLP | 0.086 |
| HMRTPLTGREEQVATLIGRGMTNSEIAESLSVDESTVKTHIGSILRKVHLRDRLQVALWFHGLPIE | -0.495 |
| HMGDFVIVPDLIGKTIEEFDSELNELNLKYIISDSGNYNPDFKINSVLDQLPNANSKVKGGRKIYITLNAS | -1.37 |

| Sequence | soluble fraction (log2) |
| --- | --- |
| HMGKTKFTEMSALELKAYAELNNNSMHWVYRMLYIGGGDVGFRKGMKELGYSGKFIWMTLERLKKS | -1.32 |
| HMQSLIVPVPKPEDDPVYKDGIKQDPVEVVSIWLGRDYLNMILNLKVSTGKGHTFGIVEDVS | 0.0321 |
| HMSYIGEEKAKSIAVSNVKGAGTNNVVKVEFDYDDGRAVYEVKVVYNAMEYEFEIDASNGKILSRDAESIY | -0.309 |
| HMSKPIYSELLREIRSGDVKELTLIPQRREVLVEYSDGRKATVSILANDQQVLRTAESAGVPLTVK | -0.0265 |
| HMEFGEVLAQLRQKRHISQAELGRAIFVSGGTISNYEKGVHFPDVEKLLLLADYFNVTTDYLLGRT | -2.04 |
| HMTTIPAGRQQYILSLIRREGTVTVSRLAQELEVSELTIRRDLDQMAARNLVERTHGGATERR | -0.138 |
| HMDADRLSPREREMLQFIARGQSNKEIARALELAESTVKIHVQNMLRKLNLSSRVQAAVFAVENGLG | -0.109 |
| HMKRREENLRRLALSTAERVKRKGKKEILNPMSPQERRIIHLTLQNNKEVVTHSEGEDPYRRVIISPRN | 0.00802 |
| HMLGRPDMSPIPEGSRNNDLHAWGFGRLANHPDNKRQIEADFFERGRISGLGDAEIRASWNSILRQLGHQ | 0.14 |
| HMGPVDFYQMFISELQHLAEKPVTVDALIESTQLHKSQLTEWLKRAVDDGVVKKLNRPARFQVKNK | -0.029 |
| HMAQSTALVNLAQAEINKRGLTQTEVQARLSEEGINVNSISPAEYPKYQKQILSILDQMQKEKQLSKEV | 0.412 |
| HMLGDAWSMLILRDAHSGFSRFDQFRKSLGIAPTMLTKRLSVLVDEGLLEKRQYSEHPPREEYVLTQAGQD | 0.0822 |
| HMSPLALLTPRELDILRAMTAGASNKEIARQFAIAETTVKIHVQHILRKLDVTTRVHAAVMASESGL | -2.66 |
| HMDEWFPVNDDYKFMVGDEVRTPDGLVKVVATHNDSATFYGKIITPIHDDVLKGETYEYRSYEAQVLA | -0.425 |
| HMVPTATVGENTSTLPVRQLPGGPVLVVLVRGDIVLPLPGHAFQNGDVWREISTVNGVIGWVPDEFLDY | -1.9 |
| HMWQKGEPAITGLKRISKPGLRIYSKNDELPIVYGNRGIAVISTNKGVMTGIEAKRSGVGGEVLFYV | -0.045 |
| HMSSFRDISGTVYVKASAANLRSEPNTSSLIVDTLYYGASLQRISTNDIWTKVKTGNGQIGFMDNSLFQT | -2.23 |
| HMPRENLAYTLIMDGIVQHKNLPRASVTEAWLKQELQKAGINDFRQVLIAGIDSKGQLYFQPKQK | 0.528 |
